What all share (type): binding
One test has as its system 147 bp 601 DNA. The experiment in a line: EMSA with 147 bp 601 DNA. The following applies: 0.05 µM 147 bp 601 DNA, increasing protein, 25 mM Tris pH 7.5, 20 mM NaCl, 20% glycerol, on ice 5 min, at least in duplicate. In general terms: In EMSA bound probe runs differently from free probe, usually more slowly.
A further test has as its system unmodified 187 bp NCP. Put plainly: EMSA with unmodified 187 bp NCP.
The next test has as its system H3K4me3-NCP. Conditions: EMSA.
The next test relates to unmodified 147 bp NCP. Put plainly: EMSA with unmodified 147 bp NCP. The following applies: 0.025 µM nucleosome, pH 7.5, compared to H3K4me3-NCP.

Where a chain is given by its changes, count along the chain named. Names may count otherwise. “Also recorded” adds a separate entry of the source.

B1: ASH1LBD-PHD: Human ASH1L construct (aa 2430-2629) (protein)
chain: NIEVARAARLAQIFKEICDGIISYKDSSRQALAAPLLNLPPKKKNADYYEKISDPLDLITIEKQILTGYYKTVEAFDADMLKVFRNAEKYYGRKSPVGRDVCRLRKAYYNARHEASAQIDEIVGETASEADSSETSVSEKENGHEKDDDVIRCICGLYKDEGLMIQCDKCMVWQHCDCMGVNSDVEHYLCEQCDPRPVDREVP
Take B1: in the test with 147 bp 601 DNA, the DNA binding result is recorded as “decreased”.

B2: ASH1LBD: Human ASH1L bromodomain (aa 2430-2564) (protein)
chain: LAAAEENIEVARAARLAQIFKEICDGIISYKDSSRQALAAPLLNLPPKKKNADYYEKISDPLDLITIEKQILTGYYKTVEAFDADMLKVFRNAEKYYGRKSPVGRDVCRLRKAYYNARHEASAQIDEIVGETASE
modifications: left off: GST, end not stated, cleaved
Take B2: in the test on 147 bp 601 DNA, the DNA binding entry was “forms a complex with DNA”.

B3: K2524Q/R2528Q/K2529Q mutant: K2524Q/R2528Q/K2529Q mutant of ASH1LBD (protein, UniProt Q9NR48 2430-2564, looked up, variant K2524Q R2528Q K2529Q)
chain: B2 chain with K95Q, R99Q, K100Q
modifications: bromodomain
notes: K2524Q/R2528Q/K2529Q mutant of ASH1LBD
On to B3, for which the DNA binding entry in the test with 147 bp 601 DNA is given as “lost its ability to bind DNA”.

B4: K2477Q/K2478Q/K2479Q mutant: K2477Q/K2478Q/K2479Q mutant of ASH1LBD (protein, UniProt Q9NR48 2430-2564, looked up, variant K2477Q K2478Q K2479Q)
chain: B2 chain with K48Q, K49Q, K50Q
modifications: bromodomain
notes: K2477Q/K2478Q/K2479Q mutant of ASH1LBD
B4: in the test with 147 bp 601 DNA, the DNA binding result is “diminished”.

B5: ASH1LPHD-BAH: Human ASH1L construct (aa 2579-2794 and 2579-2834) (protein, UniProt Q9NR48 2579-2834, looked up, fragment)
chain: HEKDDDVIRCICGLYKDEGLMIQCDKCMVWQHCDCMGVNSDVEHYLCEQCDPRPVDREVPMIPRPHYAQPGCVYFICLLRDDLLLRQGDCVYLMRDSRRTPDGHPVRQSYRLLSHINRDKLDIFRIEKLWKNEKEERFAFGHHYFRPHETHHSPSRRFYHNELFRVPLYEIIPLEAVVGTCCVLDLYTYCKGRPKGVKEQDVYICDYRLDKSAHLFYKIHRNRYPVCTKPYAFDHFPKKLTPKKDFSPHYVPDNYK
modifications: also 2579-2794 construct
For the molecule B5, the “binding to unmodified 187 bp NCP” value with unmodified 187 bp NCP (0.025 µM nucleosome, pH 7.5, compared to unmodified 147 bp NCP) was “increased”. Besides, the “binding to H3K4me3-NCP” value in the test on H3K4me3-NCP (0.025 µM nucleosome, increasing protein, pH 7.5, on ice 5 min) is reported as “formed a tight complex”. Further, the DNA binding result in the test on 147 bp 601 DNA is given as “forms a tight complex with 601 DNA”. In addition, the “binding to unmodified 147 bp NCP” value in the test with unmodified 147 bp NCP is listed as “decreased”.

B6: ASH1LBD-PHD-BAH: Human ASH1L construct (aa 2436-2833) (protein, UniProt Q9NR48 2436-2833, looked up, fragment)
chain: NIEVARAARLAQIFKEICDGIISYKDSSRQALAAPLLNLPPKKKNADYYEKISDPLDLITIEKQILTGYYKTVEAFDADMLKVFRNAEKYYGRKSPVGRDVCRLRKAYYNARHEASAQIDEIVGETASEADSSETSVSEKENGHEKDDDVIRCICGLYKDEGLMIQCDKCMVWQHCDCMGVNSDVEHYLCEQCDPRPVDREVPMIPRPHYAQPGCVYFICLLRDDLLLRQGDCVYLMRDSRRTPDGHPVRQSYRLLSHINRDKLDIFRIEKLWKNEKEERFAFGHHYFRPHETHHSPSRRFYHNELFRVPLYEIIPLEAVVGTCCVLDLYTYCKGRPKGVKEQDVYICDYRLDKSAHLFYKIHRNRYPVCTKPYAFDHFPKKLTPKKDFSPHYVPDNY
Turning to B6, the “preference over 147bp-NCP” value in the test with unmodified 187 bp NCP (187bp-NCP over 147bp-NCP) is reported as “maintained; also recorded: this preference was retained”; in the test with H3K4me3-NCP (H3K4me3-NCP over 147bp-NCP), “maintained”. In addition, the DNA binding entry in the test on 147 bp 601 DNA is listed as “restored; also recorded: further increased”.

(Values after paper PMC11883000, “Structure-function relationship of ASH1L and histone H3K36 and H3K4 methylation” (Nature Communications, 2025).)
